The values below come from paper doi:10.1101/2023.03.13.532385.

Assay [1] concerns the target human alpha-synuclein wild-type (human) (UniProt P37840). Put plainly: co-sedimentation.
The target of assay [2] is composite αS/N-protein fibrils (fibril strain s1, from plateau p1) (human | SARS-CoV-2) (UniProt P37840). Put plainly: co-sedimentation.

In turn, “human alpha-synuclein wild-type (from UniProt P37840 1-140) (natural protein)” registered a αS aggregated into fibrils at p2 in assay [1] of 24 µM. Moreover, in assay [2], the αS aggregated into fibrils at p1 amounted to 8 µM.
